Results: patent US20030148383A1, “Methods for identifying proteins with N-terminal N-myristoylation” (Boehringer Ingelheim International GmbH, priority 2001, published 2003)
Read-outs that look alike come from different tables or passages of the source.

Key:
[1] = biological target: T1, Myristoyl-CoA:protein N-myristoyltransferase from Saccharomyces cerevisiae (Saccharomyces cerevisiae, UniProt P14743); assay: kinetic measurements of substrate specificity of yeast NMT with octapeptides; assay type: biochemical; conditions: ratio of the Km, Rocque et al. 1993 data
T1 sequence (P14743 1-455): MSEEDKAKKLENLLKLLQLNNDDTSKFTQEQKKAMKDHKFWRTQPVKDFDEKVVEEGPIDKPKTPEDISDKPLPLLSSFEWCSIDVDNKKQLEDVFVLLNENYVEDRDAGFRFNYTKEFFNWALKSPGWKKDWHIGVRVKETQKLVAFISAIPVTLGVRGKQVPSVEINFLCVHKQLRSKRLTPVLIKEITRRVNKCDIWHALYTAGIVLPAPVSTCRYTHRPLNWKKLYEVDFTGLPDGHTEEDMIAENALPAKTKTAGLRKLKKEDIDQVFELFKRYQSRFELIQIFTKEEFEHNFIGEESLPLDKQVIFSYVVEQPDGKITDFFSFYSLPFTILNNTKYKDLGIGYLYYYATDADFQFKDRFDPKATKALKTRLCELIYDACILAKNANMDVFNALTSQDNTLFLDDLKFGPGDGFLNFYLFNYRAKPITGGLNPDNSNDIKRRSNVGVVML
Source text: The enzyme Myristoyl-CoA:protein N-myristoyltransferase from Saccharomyces cerevisiae has been subject to extensive kinetic measurements to examine its substrate specificity (Towler, D. A., et al., Annu. Rev. Biochem. 57:69-99 (1988)). […] However, the relation of the affinities, certifying which substrates are binding better than others, should remain constant.

[2] = biological target: T1, Myristoyl-CoA:protein N-myristoyltransferase from Saccharomyces cerevisiae; conditions: cited from earlier work; for Km: octapeptide substrate
[3] = earlier publication, Towler et al. 1988

Sequence | higher affinity (lower Km) than GSSKSKPK [1] [fold] | Km ([2]; Rocque et al. 1993) [µM] | Km [2, 3] [µM] | ability to become myristoylated ([2]; mutation of octapeptide GNAAAARR to GPAAAARR, Towler et al. 1988)
GNAAAARR [octapeptide substrate of yeast NMT, derived from cAMP-dependent protein kinase] | 3 | 31 | 60 | –
GPAAAARR [octapeptide, mutation of […] with proline on position 2] | – | – | – | loss of the ability to become myristoylated
GSSKSKPK [octapeptide substrate of yeast NMT] | – | 105 | 40 | –
